The results in this text go back to the supplement of paper PMC9112550, “Optimization of the antimicrobial peptide Bac7 by deep mutational scanning” (BMC Biology, 2022).

In this data set the test system is Escherichia coli TOP10. Nature of the data set: shrunken log2 fold change of peptide-encoding DNA abundance (4.5 h post-induction vs induction); higher = less antimicrobial activity (less host growth inhibition). Conditions: time post-induction: 4.5 h; library: site-saturation at positions 5, 18, 19, 20.
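Also: peptides expressed intracellularly from a pBAD plasmid library in pooled LB shake-flask culture, induced with 0.3% L-arabinose, DNA abundance read by NGS, three biological replicates, DESeq2 with apeglm shrinkage.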

In the case of RRIRTRPPRLPRPRPRPSKEPRP, the “shrunken log2 fold change” value is -0.598.

As to RRIRKRPPRLPRPRPRPFDGPRP, the “shrunken log2 fold change” value amounted to 0.23.

Take RRIRYRPPRLPRPRPRPEYKPRP: the “shrunken log2 fold change” value is -0.856.

Regarding RRIRNRPPRLPRPRPRPEQRPRP, the “shrunken log2 fold change” value stood at 0.00383.

Regarding RRIRCRPPRLPRPRPRPKTPPRP, the “shrunken log2 fold change” value came out at 0.827.

In the case of RRIRLRPPRLPRPRPRPVLSPRP, the “shrunken log2 fold change” value was -0.0937.

On to RRIRHRPPRLPRPRPRPMNEPRP, for which the “shrunken log2 fold change” value was -0.275.

Consider RRIRPRPPRLPRPRPRPGWCPRP, for which the “shrunken log2 fold change” value came out at 0.072.

Turning to RRIRFRPPRLPRPRPRPWHCPRP, the “shrunken log2 fold change” value is -0.028.

Consider RRIRCRPPRLPRPRPRPQMFPRP, for which the “shrunken log2 fold change” value was -0.155.

For RRIRKRPPRLPRPRPRPMVPPRP, the “shrunken log2 fold change” value was -0.043.

RRIRLRPPRLPRPRPRPPSSPRP: the “shrunken log2 fold change” value was determined as 1.86.

In the case of RRIRLRPPRLPRPRPRPGPGPRP, the “shrunken log2 fold change” value came to 0.279.

In the case of RRIRARPPRLPRPRPRPVMMPRP, the “shrunken log2 fold change” value was found to be 0.0914.

On to RRIRFRPPRLPRPRPRPLHFPRP, for which the “shrunken log2 fold change” value came out at 0.0202.

For the sequence RRIRERPPRLPRPRPRPETKPRP, the “shrunken log2 fold change” value was -0.231.

Consider RRIRYRPPRLPRPRPRPGSPPRP, for which the “shrunken log2 fold change” value is -0.0883.

With RRIRLRPPRLPRPRPRPGMHPRP, the “shrunken log2 fold change” value came out at 0.299.

Consider RRIRERPPRLPRPRPRPIIDPRP, for which the “shrunken log2 fold change” value is -0.0746.

Turning to RRIRCRPPRLPRPRPRPDLYPRP, the “shrunken log2 fold change” value is -0.0793.

For the sequence RRIRTRPPRLPRPRPRPDGRPRP, the “shrunken log2 fold change” value is -0.0138.

For the sequence RRIRCRPPRLPRPRPRPILCPRP, the “shrunken log2 fold change” value came to 2.87.

On to RRIRVRPPRLPRPRPRPTYGPRP, for which the “shrunken log2 fold change” value was -0.838.

RRIRQRPPRLPRPRPRPGPDPRP: the “shrunken log2 fold change” value stood at 0.163.

In the case of RRIRFRPPRLPRPRPRPISFPRP, the “shrunken log2 fold change” value was -0.0661.

Turning to RRIRCRPPRLPRPRPRPSQGPRP, the “shrunken log2 fold change” value is -0.137.

Consider RRIRTRPPRLPRPRPRPFNDPRP, for which the “shrunken log2 fold change” value is -0.136.

RRIRDRPPRLPRPRPRPVEAPRP: the “shrunken log2 fold change” value worked out at 0.441.

Regarding RRIRSRPPRLPRPRPRPWAMPRP, the “shrunken log2 fold change” value came to 0.0981.

RRIRNRPPRLPRPRPRPTVIPRP: the “shrunken log2 fold change” value was found to be 0.0591.

RRIRFRPPRLPRPRPRPHVQPRP: the “shrunken log2 fold change” value is -0.0901.

Take RRIRKRPPRLPRPRPRPSGSPRP: the “shrunken log2 fold change” value was -0.0809.

Regarding RRIRQRPPRLPRPRPRPNTWPRP, the “shrunken log2 fold change” value was -0.191.

For RRIRPRPPRLPRPRPRPGAYPRP, the “shrunken log2 fold change” value came out at 0.0679.

Turning to RRIRNRPPRLPRPRPRPIESPRP, the “shrunken log2 fold change” value is -0.00107.

In the case of RRIRPRPPRLPRPRPRPDTPPRP, the “shrunken log2 fold change” value came out at 0.0412.

For the sequence RRIRRRPPRLPRPRPRPLNMPRP, the “shrunken log2 fold change” value is -0.126.

RRIRIRPPRLPRPRPRPGEYPRP: the “shrunken log2 fold change” value was -0.161.

As for RRIRCRPPRLPRPRPRPIDQPRP, the “shrunken log2 fold change” value was -0.0719.

As to RRIRYRPPRLPRPRPRPYYHPRP, the “shrunken log2 fold change” value is -0.283.

Consider RRIRCRPPRLPRPRPRPCTKPRP, for which the “shrunken log2 fold change” value is -0.507.

On to RRIRQRPPRLPRPRPRPLWSPRP, for which the “shrunken log2 fold change” value was -0.147.

On to RRIRDRPPRLPRPRPRPRAFPRP, for which the “shrunken log2 fold change” value was -0.2.

Take RRIRTRPPRLPRPRPRPIMCPRP: the “shrunken log2 fold change” value is -0.255.

Consider RRIRRRPPRLPRPRPRPMENPRP, for which the “shrunken log2 fold change” value is 0.113.

As to RRIRLRPPRLPRPRPRPAYEPRP, the “shrunken log2 fold change” value was 2.25.

As to RRIRCRPPRLPRPRPRPSMTPRP, the “shrunken log2 fold change” value was -0.178.

With RRIRCRPPRLPRPRPRPDKRPRP, the “shrunken log2 fold change” value worked out at 0.00837.

Take RRIRWRPPRLPRPRPRPNEIPRP: the “shrunken log2 fold change” value was found to be 0.0563.

As to RRIRRRPPRLPRPRPRPLMKPRP, the “shrunken log2 fold change” value was -0.12.

Take RRIRMRPPRLPRPRPRPFPFPRP: the “shrunken log2 fold change” value was -0.356.

Regarding RRIRIRPPRLPRPRPRPNLNPRP, the “shrunken log2 fold change” value is -0.237.

For RRIRCRPPRLPRPRPRPAYPPRP, the “shrunken log2 fold change” value is -0.149.

With RRIRDRPPRLPRPRPRPKPNPRP, the “shrunken log2 fold change” value worked out at 0.45.

Turning to RRIRIRPPRLPRPRPRPTKTPRP, the “shrunken log2 fold change” value stood at 0.12.

RRIRPRPPRLPRPRPRPSAQPRP: the “shrunken log2 fold change” value is -0.0511.

Take RRIRVRPPRLPRPRPRPWTRPRP: the “shrunken log2 fold change” value was -0.0486.

As to RRIRFRPPRLPRPRPRPGQIPRP, the “shrunken log2 fold change” value was -0.133.

As to RRIRMRPPRLPRPRPRPDFCPRP, the “shrunken log2 fold change” value was determined as 0.0837.

Turning to RRIRTRPPRLPRPRPRPSIYPRP, the “shrunken log2 fold change” value is -0.513.

As for RRIRARPPRLPRPRPRPAVLPRP, the “shrunken log2 fold change” value came to 0.549.

As for RRIRNRPPRLPRPRPRPANDPRP, the “shrunken log2 fold change” value is -0.392.

On to RRIRHRPPRLPRPRPRPGPFPRP, for which the “shrunken log2 fold change” value is -0.225.

As for RRIRVRPPRLPRPRPRPAHMPRP, the “shrunken log2 fold change” value is -0.103.

As for RRIRQRPPRLPRPRPRPLLEPRP, the “shrunken log2 fold change” value was 0.105.

As to RRIRKRPPRLPRPRPRPKNMPRP, the “shrunken log2 fold change” value was -0.129.

For the sequence RRIRCRPPRLPRPRPRPAECPRP, the “shrunken log2 fold change” value was -0.223.

For the sequence RRIRARPPRLPRPRPRPQSDPRP, the “shrunken log2 fold change” value amounted to 0.0175.

For the sequence RRIRHRPPRLPRPRPRPVTEPRP, the “shrunken log2 fold change” value was -0.0954.

Consider RRIRERPPRLPRPRPRPLERPRP, for which the “shrunken log2 fold change” value was -0.191.

Regarding RRIRARPPRLPRPRPRPLGFPRP, the “shrunken log2 fold change” value is 0.644.

Take RRIRWRPPRLPRPRPRPSYIPRP: the “shrunken log2 fold change” value was -0.715.

As for RRIRIRPPRLPRPRPRPDREPRP, the “shrunken log2 fold change” value is 0.00825.

As to RRIRHRPPRLPRPRPRPMILPRP, the “shrunken log2 fold change” value was -0.0484.

Consider RRIRWRPPRLPRPRPRPWQTPRP, for which the “shrunken log2 fold change” value is -0.0178.

Take RRIRYRPPRLPRPRPRPNNKPRP: the “shrunken log2 fold change” value was -1.17.

For the sequence RRIRRRPPRLPRPRPRPHDQPRP, the “shrunken log2 fold change” value stood at 0.0964.

As to RRIRYRPPRLPRPRPRPSHPPRP, the “shrunken log2 fold change” value is -0.639.

As for RRIRMRPPRLPRPRPRPRQTPRP, the “shrunken log2 fold change” value worked out at 0.0189.

RRIRPRPPRLPRPRPRPQRTPRP: the “shrunken log2 fold change” value amounted to 0.113.

On to RRIRWRPPRLPRPRPRPKFYPRP, for which the “shrunken log2 fold change” value is -0.24.

In the case of RRIRKRPPRLPRPRPRPMGHPRP, the “shrunken log2 fold change” value came out at 0.000751.

RRIRCRPPRLPRPRPRPKSRPRP: the “shrunken log2 fold change” value came to 0.0706.

For RRIRWRPPRLPRPRPRPSYKPRP, the “shrunken log2 fold change” value is -0.479.

RRIRMRPPRLPRPRPRPIPAPRP: the “shrunken log2 fold change” value is 0.788.

For the sequence RRIRGRPPRLPRPRPRPAMKPRP, the “shrunken log2 fold change” value came out at 0.311.

RRIRTRPPRLPRPRPRPPFWPRP: the “shrunken log2 fold change” value turned out to be 0.379.

As to RRIRTRPPRLPRPRPRPTRDPRP, the “shrunken log2 fold change” value was 0.136.

RRIRVRPPRLPRPRPRPWHWPRP: the “shrunken log2 fold change” value was -0.0605.

As for RRIRVRPPRLPRPRPRPAGMPRP, the “shrunken log2 fold change” value is -0.0507.

As for RRIRTRPPRLPRPRPRPALGPRP, the “shrunken log2 fold change” value came out at 0.898.

With RRIRQRPPRLPRPRPRPDHRPRP, the “shrunken log2 fold change” value is 0.083.

As to RRIRSRPPRLPRPRPRPCEAPRP, the “shrunken log2 fold change” value amounted to 0.389.

On to RRIRHRPPRLPRPRPRPPDAPRP, for which the “shrunken log2 fold change” value is 0.348.

Regarding RRIRQRPPRLPRPRPRPHRIPRP, the “shrunken log2 fold change” value is -0.0425.

On to RRIRSRPPRLPRPRPRPPFQPRP, for which the “shrunken log2 fold change” value is 0.073.

On to RRIRERPPRLPRPRPRPVIMPRP, for which the “shrunken log2 fold change” value is -0.458.

As to RRIRGRPPRLPRPRPRPGERPRP, the “shrunken log2 fold change” value worked out at 0.731.

For RRIRERPPRLPRPRPRPNRDPRP, the “shrunken log2 fold change” value is -0.192.

For the sequence RRIRGRPPRLPRPRPRPGMEPRP, the “shrunken log2 fold change” value is 1.54.

For RRIRCRPPRLPRPRPRPMRWPRP, the “shrunken log2 fold change” value is 0.325.

For RRIRSRPPRLPRPRPRPWTTPRP, the “shrunken log2 fold change” value stood at 0.00749.

Take RRIRLRPPRLPRPRPRPSIYPRP: the “shrunken log2 fold change” value is -0.801.

As for RRIRMRPPRLPRPRPRPHVEPRP, the “shrunken log2 fold change” value was determined as 0.00707.

Turning to RRIRCRPPRLPRPRPRPKGYPRP, the “shrunken log2 fold change” value is -0.0908.

Take RRIRNRPPRLPRPRPRPAIMPRP: the “shrunken log2 fold change” value was -0.0978.

Take RRIRGRPPRLPRPRPRPDVCPRP: the “shrunken log2 fold change” value is 0.181.

On to RRIRWRPPRLPRPRPRPLQAPRP, for which the “shrunken log2 fold change” value was determined as 0.721.

For RRIRDRPPRLPRPRPRPLAIPRP, the “shrunken log2 fold change” value worked out at 0.0447.

For RRIRNRPPRLPRPRPRPVHCPRP, the “shrunken log2 fold change” value was -0.123.

RRIRYRPPRLPRPRPRPFRCPRP: the “shrunken log2 fold change” value was 0.0856.

Consider RRIRGRPPRLPRPRPRPGFNPRP, for which the “shrunken log2 fold change” value worked out at 0.235.

With RRIRHRPPRLPRPRPRPSRHPRP, the “shrunken log2 fold change” value was found to be 1.6.

As to RRIRDRPPRLPRPRPRPEGMPRP, the “shrunken log2 fold change” value is 0.896.

Regarding RRIRVRPPRLPRPRPRPVIGPRP, the “shrunken log2 fold change” value worked out at 0.183.

In the case of RRIRRRPPRLPRPRPRPPQEPRP, the “shrunken log2 fold change” value worked out at 0.405.

Take RRIRERPPRLPRPRPRPPFIPRP: the “shrunken log2 fold change” value is -0.299.

In the case of RRIRRRPPRLPRPRPRPIWNPRP, the “shrunken log2 fold change” value was determined as 0.0946.

For the sequence RRIRHRPPRLPRPRPRPVTGPRP, the “shrunken log2 fold change” value is -0.213.

Turning to RRIRIRPPRLPRPRPRPSGKPRP, the “shrunken log2 fold change” value was -0.146.

As to RRIRNRPPRLPRPRPRPQQAPRP, the “shrunken log2 fold change” value is -0.356.

As to RRIRSRPPRLPRPRPRPIAYPRP, the “shrunken log2 fold change” value was -0.0673.

Consider RRIRWRPPRLPRPRPRPDIIPRP, for which the “shrunken log2 fold change” value was found to be 0.0562.

Consider RRIRGRPPRLPRPRPRPKVCPRP, for which the “shrunken log2 fold change” value is 0.232.

RRIRWRPPRLPRPRPRPGGCPRP: the “shrunken log2 fold change” value amounted to 0.732.
